# Data taken from patent publication US20250230247A1 (DREN BIO, published 2025).
# T1: cynomolgus monkey Dectin-1 expressed on monocytes (cynomolgus monkey, UniProt A0A2K5UXY6 35-281)
# T1 construct: whole, on cells; also called cynomolgus Dectin-1; cyno Dectin-1
# T1 sequence: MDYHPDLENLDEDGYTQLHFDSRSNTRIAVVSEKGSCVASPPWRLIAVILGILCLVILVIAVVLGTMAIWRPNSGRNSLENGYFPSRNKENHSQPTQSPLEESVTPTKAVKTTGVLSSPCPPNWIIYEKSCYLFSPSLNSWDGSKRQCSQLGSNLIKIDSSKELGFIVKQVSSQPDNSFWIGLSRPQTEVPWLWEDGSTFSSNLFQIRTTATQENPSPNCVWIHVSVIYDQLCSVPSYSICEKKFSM
# T2: human Dectin-1 isoform A (human, UniProt Q9BXN2 1-247)
# T2 construct: also called hDectin-1a; Dectin-1 on HEK-Blue hDectin-1a cells
# T2 sequence: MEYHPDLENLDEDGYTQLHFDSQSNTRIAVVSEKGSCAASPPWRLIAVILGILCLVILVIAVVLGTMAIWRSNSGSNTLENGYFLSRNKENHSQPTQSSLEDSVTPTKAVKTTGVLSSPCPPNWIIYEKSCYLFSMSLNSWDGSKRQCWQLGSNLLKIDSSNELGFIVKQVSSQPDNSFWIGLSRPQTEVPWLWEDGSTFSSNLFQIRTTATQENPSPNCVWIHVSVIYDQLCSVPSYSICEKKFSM
# T3: human Dectin-1 isoform B (human, UniProt Q9BXN2 1-247)
# T3 construct: also called hDectin-1b; Dectin-1 on HEK Blue hDectin-1-b cells
# T3 sequence: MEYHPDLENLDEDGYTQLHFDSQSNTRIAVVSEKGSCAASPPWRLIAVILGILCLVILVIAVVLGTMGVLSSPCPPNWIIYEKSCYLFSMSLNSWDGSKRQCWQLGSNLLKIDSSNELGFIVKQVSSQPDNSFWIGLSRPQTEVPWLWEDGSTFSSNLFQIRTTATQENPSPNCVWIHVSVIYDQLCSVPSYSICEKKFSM
# T4: Nectin-4 (UniProt Q96NY8 32-510, limits assumed)
# T4 construct: whole, on cells; also called PVRL4; Nectin-4 on A431 cells
# T4 sequence (looked up): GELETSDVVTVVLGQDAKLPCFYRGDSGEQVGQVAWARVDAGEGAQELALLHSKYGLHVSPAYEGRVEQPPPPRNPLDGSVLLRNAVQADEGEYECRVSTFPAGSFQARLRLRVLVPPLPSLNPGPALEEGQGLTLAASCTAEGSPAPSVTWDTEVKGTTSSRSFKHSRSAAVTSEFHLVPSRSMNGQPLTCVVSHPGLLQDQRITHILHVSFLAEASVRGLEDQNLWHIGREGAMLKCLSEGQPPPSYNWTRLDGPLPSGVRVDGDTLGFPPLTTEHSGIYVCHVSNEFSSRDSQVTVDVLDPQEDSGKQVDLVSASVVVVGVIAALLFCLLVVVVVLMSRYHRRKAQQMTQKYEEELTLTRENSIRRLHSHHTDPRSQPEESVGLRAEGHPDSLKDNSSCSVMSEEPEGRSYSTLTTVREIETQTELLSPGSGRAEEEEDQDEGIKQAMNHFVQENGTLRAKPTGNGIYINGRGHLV
# Key:
# [1] = molecular target: T1, cynomolgus monkey Dectin-1 expressed on …; test: flow cytometry, cynomolgus monocytes
# Procedure: (§1) Binding of Dectin-1 antibodies to Dectin-1 expressing cells Dectin-1 expressing cells (HEK Blue hDectin-1-a, HEK Blue hDectin-1-b, HEK293F hDectin-1 a FL, human monocytes or cyno monocytes) were plated at 1×10⁵-2×10⁵ cells per well in non-tissue culture treated, 96 well V bottom plates. Additionally, human monocytes were incubated in human FcgR blocking antibody (Biolegend, San Diego, CA) for 10 minutes at room temperature to reduce binding of the antibodies to the Fc receptor.
# (§2) For detection of mouse primary antibodies, the cells were incubated with a fluorescently labeled AF647 anti-mouse Fc-specific secondary antibody (Jackson Immuno). […] Data acquisition was performed using a CytoFlex flow cytometer (Beckman Coulter, Atlanta, GA) and analyzed using Graphpad Prism 8.4.
# The binding was assessed by flow cytometry analysis of cynomolgus monkey monocytes derived from PBMCs.
# [2] = molecular target: T2, human Dectin-1 isoform A; test: flow cytometry on HEK-Blue hDectin-1a cells
# Procedure: as §1, §2
# [3] = molecular target: T2, human Dectin-1 isoform A; test: flow cytometry on HEK-Blue hDectin-1a cells (summary table)
# Procedure: as §1, §2
# [4] = molecular target: T3, human Dectin-1 isoform B; test: flow cytometry on HEK-Blue hDectin-1b cells (summary table)
# Procedure: as §1, §2
# [5] = molecular target: T2, human Dectin-1 isoform A; test: flow cytometry on HEK293F hDectin-1a FL cells (summary table)
# Procedure: as §1, §2
# [6] = molecular target: T3, human Dectin-1 isoform B; test: flow cytometry on HEK-Blue hDectin-1b cells
# Procedure: as §1, §2
# [7] = molecular target: T2, human Dectin-1 isoform A; test: flow cytometry on HEK293F hDectin-1a FL cells
# Procedure: as §1, §2
# [8] = molecular target: T2, human Dectin-1 isoform A; test: flow cytometry, HEK-Blue hDectin-1a cells
# Procedure: as §1, §2
# [9] = molecular target: T4, Nectin-4; test: flow cytometry on Nectin-4-expressing A431 cells (lower panel), AF647 goat anti-human IgG secondary, 4PL fit; curve still rising (about 92,000 MFI) at 300 nM, no plateau
# Procedure: The secondary antibody (AF647 goat Anti-human IgG) was used for detection by flow cytometry. Binding EC50 values were determined using four parameter logistic (4PL) non-linear regression.
binder,measurement,setting,value
"anti-human Dectin-1 antibody clone 2M24 (mIgG1) (antibody, V domains shown, hybridoma antibody with human variable and mouse constant domains (mIgG1); also called 2M24 clone; mIgG1 2M24) VH: QVQLVQSGAEVKKPGASVKVSCKSSGYTFTDYYIHWVRQAPGQGLEWMGWINPNSGDTNYAQKFQGRITMTRDTSISTAYLELSRLRSDDTAVFYCARNSGSYSFGYWGQGTLVTVSS VL: DIQMTQSPSSVSASVGDRVTITCRASQGISSWLAWYQQKPGKAPKLLIFGASSLQSGVPSRFSGSGSGTDFTLTVSSLQPEDFATYYCQQAYSFPFTFGPGTKVDIE",EC50,[1],0.3 nM
same,EC50,[2],0.4 nM
same,EC50,[3],0.4 nM
same,EC50,[4],1 nM
same,EC50,[5],1.1 nM
same,EC50,[6],1 nM
same,EC50,[7],1.1 nM
"fully human 2M24 anti-Dectin-1 antibody (hIgG4) (antibody, V domains shown, human IgG4; also called 2M24 (hIgG4); hIgG4 2M24) VH: QVQLVQSGAEVKKPGASVKVSCKSSGYTFTDYYIHWVRQAPGQGLEWMGWINPNSGDTNYAQKFQGRITMTRDTSISTAYLELSRLRSDDTAVFYCARNSGSYSFGYWGQGTLVTVSS VL: DIQMTQSPSSVSASVGDRVTITCRASQGISSWLAWYQQKPGKAPKLLIFGASSLQSGVPSRFSGSGSGTDFTLTVSSLQPEDFATYYCQQAYSFPFTFGPGTKVDIE",EC50,[8],1.6 nM
"2M24/Nectin-4 hIgG1 bispecific antibody (bispecific antibody, V domains shown, human IgG1; DuetMab mutations F126C and C220V (heavy), S121C and C214V (light)) VH 1: QVQLVQSGAEVKKPGASVKVSCKSSGYTFTDYYIHWVRQAPGQGLEWMGWINPNSGDTNYAQKFQGRITMTRDTSISTAYLELSRLRSDDTAVFYCARNSGSYSFGYWGQGTLVTVSS VL 1: DIQMTQSPSSVSASVGDRVTITCRASQGISSWLAWYQQKPGKAPKLLIFGASSLQSGVPSRFSGSGSGTDFTLTVSSLQPEDFATYYCQQAYSFPFTFGPGTKVDIE VH 2: EVQLVESGGGLVQPGGSLRLSCAASGFTFSSYNMNWVRQAPGKGLEWVSYISSSSSTIYYADSVKGRFTISRDNAKNSLSLQMNSLRDEDTAVYYCARAYYYGMDVWGQGTTVTVSS VL 2: DIQMTQSPSSVSASVGDRVTITCRASQGISGWLAWYQQKPGKAPKFLIYAASTLQSGVPSRFSGSGSGTDFTLTISSLQPEDFATYYCQQANSFPPTFGGGTKVEIK",EC50,[9],~32 nM
